Data on two molecules can be found in article PMC4267654.

The target in data set [1] is T1, R.NgoAVII-B3 (C-terminal B3-like DNA-binding domain) (UniProt Q5F9M9 179-345).
T1 sequence: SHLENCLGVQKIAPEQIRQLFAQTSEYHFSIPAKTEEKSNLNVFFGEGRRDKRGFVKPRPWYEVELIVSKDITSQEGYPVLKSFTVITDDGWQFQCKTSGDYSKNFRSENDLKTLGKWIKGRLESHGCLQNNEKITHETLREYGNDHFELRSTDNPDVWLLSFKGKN
In words: X-ray crystallography.

Data set [2] concerns the target T1, R.NgoAVII-B3 (C-terminal B3-like …). In words: X-ray crystallography. The source holds these as a separate data set.

Where two headings read alike, the source gives them in different places.

B1: DNA-2 oligoduplex (DNA-1 without terminal C1 and G32) (dsDNA)
DNA 1: GGGATTGCCGCTTAG
DNA 2: CCTAAGCGGCAATCC
On to B1, for which the binding result in data set [1] was “binds”.

B2: DNA-1 cognate oligoduplex (dsDNA)
DNA 1: GGGATTGCCGCTTAGG
DNA 2: CCCTAAGCGGCAATCC
B2: the binding result in data set [2] is “binds”.
